Measured values: publication PMC9887155, “Kinetics of cone specific G-protein signaling in avian photoreceptor cells” (Frontiers in Molecular Neuroscience, 2023)
Where “and” joins values, the source holds several entries; their conditions need not be identical. Equal values may be shown once. Read-outs that look alike come from different tables or passages of the source. Ends that are not written are not given here.

Key:
[1] = target: Gtα/Giα with a C-terminus truncated by six amino acids (European robin (Erithacus rubecula)); assay: SPR; Gt-3AA or Gt-6AA immobilised on CM5 (3.1–4.2 ng/mm^2); LWO2 injected at 120 nM (Gt-3AA) or 100 nM (Gt-6AA); global fit, Langmuir 1:1 model; apparent KD; three sets each
[2] = target: Gtα/Giα with a C-terminus truncated by three amino acids (European robin (Erithacus rubecula)); assay: as above
[3] = target: Gtα/Giα with a C-terminus truncated by six amino acids (European robin (Erithacus rubecula)); assay: as above; remark: listed apart in the source
[4] = target: Gtα/Giα with a C-terminus truncated by three amino acids (European robin (Erithacus rubecula)); assay: as above; remark: listed apart in the source
[5] = target: Gtα/Giα chimera (α-subunit of the cone specific heterotrimeric G protein of European robin, chimera with Giα) (European robin (Erithacus rubecula)); assay: SPR; kinetics: Gtα/Giα immobilised on CM5 (2.6–3.4 ng/mm^2); LWO2 injected at 5 to 150 nM in random order; global fit, Langmuir 1:1 model; apparent KD from kd/ka; 12 sets; same running buffer
[6] = target: Gtα/Giα chimera (α-subunit of the cone specific heterotrimeric G protein of European robin, chimera with Giα) (European robin (Erithacus rubecula)); assay: FRET or BRET; in solution: intrinsic Trp (excitation 280 nm) to dansyl on the peptide, emission 400–550 nm; peptide and Gtα/Giα each 16.7 μM; 80 mM Hepes pH 7.4, 40 mM KCl, 150 mM NaCl, 10 mM MgCl2, 10 μM GDP; 30 min on ice

Kd [1] | Kd [2] | Kd [3] | koff [3] | kon [3] | Kd [4] | koff [4] | kon [4] | Kd [5] | koff [5] | kon [5] | decrease of dansyl fluorescence emission (FRET) on adding Gtα/Giα (relative fluorescence counts) [6] | Binder
34.5 nM | 7.3 nM | 50 nM | 0.00093 s⁻¹ | 18600 M⁻¹ s⁻¹ | 8.7 nM | 0.000937 s⁻¹ | 108000 M⁻¹ s⁻¹ | 15.1 nM and 21.4 nM and 3 to 41 nM | 0.000812 s⁻¹ | 53600 M⁻¹ s⁻¹ |  | CGAGAWERWFVVCKPFGNIKFDGK-NH2 (cysteine pairing not given here) [peptide LWO2 (second cytoplasmic loop of long-wavelength-sensitive opsin of European robin)]
 |  |  |  |  |  |  |  |  |  |  | 14000 | CGAGAWERWFVVCKPFGNIKFDGK-NH2 (cysteine pairing not given here; also: dansyl coupled to free amino groups) [dansylated peptide LWO2]
